Source: article PMC10716038, “Talin and kindlin use integrin tail allostery and direct binding to activate integrins” (Nature Structural & Molecular Biology, 2023)
Where “and” joins values, the source holds several entries; their conditions need not be identical. Equal values may be shown once. Read-outs that look alike come from different tables or passages of the source. Each block holds one molecule with its values, some of them ahead of it. No end group written: not given here.

B2: kindlin-2 (KIND2) (natural protein)
chain: MALDGIRMPDGCYADGTWELSVHVTDLNRDVTLRVTGEVHIGGVMLKLVEKLDVKKDWSDHALWWEKKRTWLLKTHWTLDKCGIQADAKLQFTPQHKLLRLQLPNMKYVKVKVNFSDRVFKAVSDICKTFNIRHPEELSLLKKPRDPTKKKKKKLDDQSEDEALELEGPLIMPGSGSIYSSPGLYSKTMTPTYDAHDGSPLSPTSAWFGDSALSEGNPGILAVSQPVTSPEILAKMFKPQALLDKAKTNQGWLDSSRSLMEQDVKENEALLLRFKYYSFFDLNPKYDAIRINQLYEQAKWALLLEEIECTEEEMMMFAALQYHINKLSIMTSENHLNNSDKEVDEVDAALSDLEITLEGGKTSTILGDITSIPELADYIKVFKPKKLTLKGYKQYWCTFKDTSISCYKSREESSGTPAHQLNLRGCEVTPDVNISGQKFNIKLLIPVAEGMNEIWLRCDNEKQYAHWMAACRLASKGKTMADSSYNLEVQNILSFLKMQHLNPDPQLIPDQITTDVNPECLVSPRYLKKYKSKQITARILEAHQNVAQMSLIEAKMRFIQAWQSLPEFGITHFIARFQGGKREELIGIAYNRLIRMDASTGDAIKTWRFSNMKQWNVNWEIKMVTVEFADEVRLSFICTEVDCKVVHEFIGGYIFLSTRAKDQNESLDEEMFYKLTSGWV

Legend:
[1] = molecular target: ATTO 488-labeled β1–spacer–CT (UniProt P09055); experiment: MST; apparent; THD1 titrated to 488–β1-spacer-CT in the presence of 30-35 µM KIND2; MST buffer
[2] = molecular target: ATTO 488-labelled β1–spacer–CT (UniProt P05556); experiment: MST; as a7, with a second unlabelled protein present at near-saturating concentration (named in the quantity or in the printed words); apparent constants (Kd,app*)
[3] = molecular target: ATTO 488-labelled β1–spacer–CT (UniProt P05556); experiment: MST; ATTO 488-labelled β-CT peptide (50–200 nM) held constant, one unlabelled protein titrated; 20 mM Tris pH 7.5, 200 mM NaCl, 1 mM TCEP, 0.05% Tween-20; apparent affinities (near-saturation only)
[4] = molecular target: ATTO 488-labeled β1–spacer–CT (UniProt P09055); experiment: MST; unlabelled protein titrated to 50-200 nM ATTO 488-labelled β-CT peptide, no third protein; 20 mM Tris pH 7.5, 200 mM NaCl, 1 mM TCEP, 0.05% Tween-20; Kd of individual titrations (in S0002 mean and sd, n = 2)
[5] = molecular target: ATTO 488-labeled β1–spacer–CT (UniProt P09055); experiment: MST; apparent; KIND2-Y13A titrated to 488–β3-CT or KIND2 to 488–β1-spacer-CT in the presence of 300-400 µM THD1; MST buffer
[6] = molecular target: ATTO 488-labelled β1–spacer–CT (UniProt P05556); experiment: MST; ATTO 488-labelled β-CT peptide (50–200 nM) held constant, one unlabelled protein titrated; 20 mM Tris pH 7.5, 200 mM NaCl, 1 mM TCEP, 0.05% Tween-20; apparent affinities (near-saturation only); remark: listed apart in the source
[7] = molecular target: ATTO 488-labeled β1–spacer–CT (UniProt P09055); experiment: MST; unlabelled protein titrated to 50-200 nM ATTO 488-labelled β-CT peptide, no third protein; 20 mM Tris pH 7.5, 200 mM NaCl, 1 mM TCEP, 0.05% Tween-20; Kd of individual titrations (in S0002 mean and sd, n = 2); remark: listed apart in the source
[8] = molecular target: β1-TM–CT Y783A (THD1-binding impaired) in nanodiscs (UniProt P09055); experiment: flow cytometry-based reporter-displacement assay (FC-RDA) on beads; biotinylated TM–CT in 10% PIP3/90% DMPC nanodiscs on streptavidin beads; reporter 50 nM 647–KIND2, unlabelled competitor titrated; 20 mM Tris pH 7.5, 200 mM NaCl, room temperature; IC50 of individual experiments; charged lipids contribute to the binding
[9] = molecular target: T1, β1 transmembrane and cytoplasmic tail polypeptide (β1-TM–CT) in nanodiscs (UniProt P05556 726-798, biotin (biotin-maleimide)); experiment: FACS; 10% PIP2 nanodiscs
T1 chain: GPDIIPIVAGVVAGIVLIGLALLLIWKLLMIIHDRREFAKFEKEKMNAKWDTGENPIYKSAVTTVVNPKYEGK

[10] = molecular target: T2, α5-TM lacking the cytoplasmic domain (tailless α5-TM) in nanodiscs (UniProt P11688 993-1025, biotin (biotin-maleimide)); experiment: FACS; 10% PIP2 nanodiscs
T2 chain: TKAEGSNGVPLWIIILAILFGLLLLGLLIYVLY

[11] = molecular target: T3, β1-TM–CT Y795A (KIND2-binding impaired) in nanodiscs (UniProt P09055 726-798, Y795A, biotin (biotin-maleimide)); experiment: FACS; 10% PIP2 nanodiscs
[12] = molecular target: T4, β1-TM–CT Y783A (THD1-binding impaired) in nanodiscs (UniProt P09055 726-798, Y783A, biotin (biotin-maleimide)); experiment: FACS; 10% PIP2 nanodiscs
[13] = molecular target: T5, β3 transmembrane and cytoplasmic tail polypeptide (β3-TM–CT) in nanodiscs (UniProt O54890 715-787, biotin (biotin-maleimide)); experiment: FACS; 10% PIP2 nanodiscs
T5 chain: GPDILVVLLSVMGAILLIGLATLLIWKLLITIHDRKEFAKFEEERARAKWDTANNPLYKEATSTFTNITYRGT

[14] = molecular target: T1, β1 transmembrane and cytoplasmic tail …; experiment: FACS; 10% PIP3 nanodiscs
[15] = molecular target: T2, α5-TM lacking the cytoplasmic domain …; experiment: FACS; 10% PIP3 nanodiscs
[16] = molecular target: T3, β1-TM–CT Y795A (KIND2-binding impaired) …; experiment: FACS; 10% PIP3 nanodiscs
[17] = molecular target: T4, β1-TM–CT Y783A (THD1-binding impaired) …; experiment: FACS; 10% PIP3 nanodiscs
[18] = molecular target: B2; experiment: MST
[19] = molecular target: T6, TLN1-F3–ΔKIND2 fusion protein; experiment: MST
T6 chain: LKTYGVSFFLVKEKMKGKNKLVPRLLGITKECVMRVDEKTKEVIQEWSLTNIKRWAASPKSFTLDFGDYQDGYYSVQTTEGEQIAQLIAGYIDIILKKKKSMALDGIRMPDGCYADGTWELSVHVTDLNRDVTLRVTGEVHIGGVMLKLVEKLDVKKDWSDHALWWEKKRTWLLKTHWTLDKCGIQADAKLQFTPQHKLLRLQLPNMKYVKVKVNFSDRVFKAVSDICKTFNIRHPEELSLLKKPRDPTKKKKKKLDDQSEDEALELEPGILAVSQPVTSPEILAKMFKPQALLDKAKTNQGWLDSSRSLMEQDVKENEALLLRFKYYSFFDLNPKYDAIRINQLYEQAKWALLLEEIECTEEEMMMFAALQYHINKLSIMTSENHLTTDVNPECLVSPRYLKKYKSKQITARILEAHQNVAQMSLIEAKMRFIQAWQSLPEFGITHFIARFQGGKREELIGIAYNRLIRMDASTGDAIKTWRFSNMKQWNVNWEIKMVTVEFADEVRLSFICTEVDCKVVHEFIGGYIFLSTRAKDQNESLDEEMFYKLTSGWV

Molecule: B2
IC50 [9]: 120 nM
IC50 [10]: 444 nM
IC50 [11]: 370 nM
IC50 [12]: 117 nM
IC50 [13]: 95 nM
IC50 [14]: 102 nM
IC50 [15]: 471 nM
IC50 [16]: 162 nM
IC50 [17]: 255 nM

B3: ATTO 488-labelled β1-CT^Y783A (peptide)
peptide: {ATTO 488}-KLLMIIHDRREFAKFEKEKMNAKWDTGENPIAKSAVTTVVNPKYEGK
Kd [18]: 4.9 µM
Kd [19]: 4.3 µM

Next, values leading:

Kd [1]: 254 µM and 320 µM and 262 µM
apparent Kd (Kd,app*) in the presence of KIND2 [2]: 279 µM
Kd [3]: 181 µM
Kd [4]: 178 µM and 171 µM and 193 µM
Molecule: talin-1 head domain (THD1) (from UniProt P26039 1-405) (domain or fragment)

Kd [5]: 6.09 µM and 3.02 µM and 8.05 µM
apparent Kd (Kd,app*) in the presence of THD1 [2]: 6 µM
Kd [6]: 5 µM
Kd [7]: 5.47 µM and 5.42 µM and 5.12 µM
IC50 [8]: 297 nM and 278 nM and 387 nM
B1: kindlin-2 (KIND2) (natural protein)
chain: MALDGIRMPDGCYADGTWELSVHVTDLNRDVTLRVTGEVHIGGVMLKLVEKLDVKKDWSDHALWWEKKRTWLLKTHWTLDKCGIQADAKLQFTPQHKLLRLQLPNMKYVKVKVNFSDRVFKAVSDICKTFNIRHPEELSLLKKPRDPTKKKKKKLDDQSEDEALELEGPLIMPGSGSIYSSPGLYSKTMTPTYDAHDGSPLSPTSAWFGDSALSEGNPGILAVSQPVTSPEILAKMFKPQALLDKAKTNQGWLDSSRSLMEQDVKENEALLLRFKYYSFFDLNPKYDAIRINQLYEQAKWALLLEEIECTEEEMMMFAALQYHINKLSIMTSENHLNNSDKEVDEVDAALSDLEITLEGGKTSTILGDITSIPELADYIKVFKPKKLTLKGYKQYWCTFKDTSISCYKSREESSGTPAHQLNLRGCEVTPDVNISGQKFNIKLLIPVAEGMNEIWLRCDNEKQYAHWMAACRLASKGKTMADSSYNLEVQNILSFLKMQHLNPDPQLIPDQITTDVNPECLVSPRYLKKYKSKQITARILEAHQNVAQMSLIEAKMRFIQAWQSLPEFGITHFIARFQGGKREELIGIAYNRLIRMDASTGDAIKTWRFSNMKQWNVNWEIKMVTVEFADEVRLSFICTEVDCKVVHEFIGGYIFLSTRAKDQNESLDEEMFYKLTSGWV
